Results as given in paper PMC4655608 (The Biochemical journal, 2015).

B1: p87 non-catalytic subunit of PI3Kγ (natural protein, UniProt Q5UE93 1-754, looked up)
chain: MESSDVELDLQRSVQAVLRELSTQAPALQSNQGMWRWSLHKKVERDPGKSPVLVRILLRELEKAESQDLRHVIIPLLHTVMYVLTKATGITEELYQRIYAFCTRLLTLPTPYCTVALDCAIRLKTEMAVPGTLYQRMVIAEQNLTNELYPYQERVFLFVDPELVSASVCSALLLEIEAAQAQQTPETCMRHVVSHALQAALGEACHAGALHRKLQASPRRTLEHYFHAVVAALEQMASEASPSREGHVERLEEIYCSLLGPAAGRCGGDLVQERPPSIPLPSPYITFHLWTGEEQLWKELVLFLRPRSQLRLSADLEVLDLQGLRPDRELARVSVLSTDSGIERDLPTGADELPAPGSPEMERAGLQRKGGIKKRAWPLDFLMPGSWDGPPGLHRRTGRPSGDGEMLPGVSRLHTARVLVLGDDRMLGRLAQAYHRLRKRETQKFCLTPRLSLQLYYIPVLAPEKPAASRQPELGELATFLGRVDPWYQSNVNTLCPAIHKLAEMPPSLDTSRTVDPFILDVITYYIRMGTQPIYFQIYTVKIFFSDLSQDPTEDIFLIELKVKIQDSKFPKDGFSPRRRGVAEGPGAELSLCYQKALLSHRPREVTVSLRATGLILKAIPASDTEVSGSSHCPLPAAPVTDHTCLNVNVTEVVKSSNLAGKSFSTVTNTFRTNNIQIQSRDQRLLTLSLDKDDQRTFRDVVRFEVAPCPEPCSGAQKSKAPWLNLHGQQEVEAIKAKPKPLLMPINTFSGIVQ
B2: p101 non-catalytic subunit of PI3Kγ (natural protein, UniProt Q8WYR1 1-880, looked up)
chain: MQPGATTCTEDRIQHALERCLHGLSLSRRSTSWSAGLCLNCWSLQELVSRDPGHFLILLEQILQKTREVQEKGTYDLLTPLALLFYSTVLCTPHFPPDSDLLLKAASTYHRFLTWPVPYCSICQELLTFIDAELKAPGISYQRLVRAEQGLPIRSHRSSTVTVLLLNPVEVQAEFLAVANKLSTPGHSPHSAYTTLLLHAFQATFGAHCDVPGLHCRLQAKTLAELEDIFTETAEAQELASGIGDAAEARRWLRTKLQAVGEKAGFPGVLDTAKPGKLHTIPIPVARCYTYSWSQDSFDILQEILLKEQELLQPGILGDDEEEEEEEEEVEEDLETDGHCAERDSLLSTSSLASHDSTLSLASSQASGPALSRHLLTSFVSGLSDGMDSGYVEDSEESSSEWPWRRGSQERRGHRRPGQKFIRIYKLFKSTSQLVLRRDSRSLEGSSDTALPLRRAGSLCSPLDEPVSPPSRAQRSRSLPQPKLGTQLPSWLLAPASRPQRRRPFLSGDEDPKASTLRVVVFGSDRISGKVARAYSNLRRLENNRPLLTRFFKLQFFYVPVKRSHGTSPGACPPPRSQTPSPPTDSPRHASPGELGTTPWEESTNDISHYLGMLDPWYERNVLGLMHLPPEVLCQQSLKAEAQALEGSPTQLPILADMLLYYCRFAARPVLLQVYQTELTFITGEKTTEIFIHSLELGHSAATRAIKASGPGSKRLGIDGDREAVPLTLQIIYSKGAISGRSRWSNLEKVCTSVNLNKACRKQEELDSSMEALTLNLTEVVKRQNSKSKKGFNQISTSQIKVDKVQIIGSNSCPFAVCLDQDERKILQSVVRCEVSPCYKPEKSDLSSPPQTPPDLPAQAAPDLCSLLCLPIMTFSGALP

Target: catalytic p110γ subunit of class IB phosphoinositide 3-kinase (PI3Kγ) (human, UniProt P48736 1-1102)
Sequence (P48736 whole entry): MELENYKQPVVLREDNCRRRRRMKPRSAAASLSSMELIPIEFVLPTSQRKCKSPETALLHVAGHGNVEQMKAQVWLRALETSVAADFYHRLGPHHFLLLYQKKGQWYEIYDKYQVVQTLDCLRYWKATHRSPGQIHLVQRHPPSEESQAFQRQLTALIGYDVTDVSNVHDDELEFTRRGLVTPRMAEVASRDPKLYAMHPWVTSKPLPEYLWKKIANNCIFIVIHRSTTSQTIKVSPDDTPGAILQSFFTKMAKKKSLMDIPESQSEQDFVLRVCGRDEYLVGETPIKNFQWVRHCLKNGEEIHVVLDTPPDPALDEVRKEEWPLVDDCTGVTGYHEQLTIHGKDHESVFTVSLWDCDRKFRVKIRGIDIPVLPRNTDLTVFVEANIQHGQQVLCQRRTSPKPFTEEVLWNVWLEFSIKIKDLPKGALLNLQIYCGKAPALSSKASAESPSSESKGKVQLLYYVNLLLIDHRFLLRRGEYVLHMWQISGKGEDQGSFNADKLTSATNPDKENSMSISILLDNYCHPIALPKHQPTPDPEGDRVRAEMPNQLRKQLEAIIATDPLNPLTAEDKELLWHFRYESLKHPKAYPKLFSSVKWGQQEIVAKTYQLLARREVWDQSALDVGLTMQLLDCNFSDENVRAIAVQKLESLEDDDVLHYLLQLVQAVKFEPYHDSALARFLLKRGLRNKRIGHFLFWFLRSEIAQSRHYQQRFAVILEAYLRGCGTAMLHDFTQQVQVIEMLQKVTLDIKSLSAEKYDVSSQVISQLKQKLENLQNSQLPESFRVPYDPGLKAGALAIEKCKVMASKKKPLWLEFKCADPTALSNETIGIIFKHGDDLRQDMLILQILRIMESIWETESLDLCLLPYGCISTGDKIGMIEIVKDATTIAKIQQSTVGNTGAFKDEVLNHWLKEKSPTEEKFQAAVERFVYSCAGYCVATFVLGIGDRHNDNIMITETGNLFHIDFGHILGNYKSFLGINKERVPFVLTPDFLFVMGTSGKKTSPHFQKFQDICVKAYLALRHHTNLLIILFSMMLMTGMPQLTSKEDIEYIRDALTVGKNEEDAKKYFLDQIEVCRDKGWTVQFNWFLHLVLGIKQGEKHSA
Assay: AUC

| Binder | Kd |
| --- | --- |
| B1 | ≤ 200 nM |
| B2 | ≤ 100 nM |
